Results as given in the supplement of paper PMC10126150.
± gives the standard deviation of the averaged measurements.

System: ATP
Experiment: switch fluorescence ratio, 500 uM ATP over buffer (Cy3 cluster intensity, sum of 5 cycles each) (fold (ratio)); higher = stronger signal-on switching upon ATP binding; sequences stand for … in TCGTCGGCAGCGTCAGATGTGTATAAGAGACAGTTTTTTTTTTTTTTTTTTTTTTTTT…TC
Settings: aptamer strand: ATP DNA aptamer (quencher-CACCTGGGGGAGTATTGCGGAGGAAGG + anchor), 100 nM annealed; ATP concentration: 500 uM
Method in brief: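 The quencher-labelled ATP aptamer, at 100 nM, was annealed to Cy3-labelled switching-strand clusters on a modified Illumina MiSeq flow-cell. The clusters were imaged in selection buffer, then after 15 min with 500 uM ATP at 22 °C, and this buffer/ATP cycle ran five times with NaOH stripping and re-annealing between runs. Per-cluster fluorescence ratios, summed target-cycle over summed buffer-cycle Cy3 intensity, were averaged per switch-domain sequence. Clusters outside 100-1000 RFU were excluded.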
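Further: ATP exposure 15 min at 22 °C before imaging.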

GCACACCAGT
switch fluorescence ratio: 1.04 ± 0.014

GCACACCGAG
switch fluorescence ratio: 1.083 ± 0.0059

GCACATGGCA
switch fluorescence ratio: 1.02 ± 0.015

GCACATGGTG
switch fluorescence ratio: 1.05 ± 0.021

GCACATTATG
switch fluorescence ratio: 0.985 ± 0.011

GCACCAAGGA
switch fluorescence ratio: 1.07 ± 0.036

GCACCTATAT
switch fluorescence ratio: 1.04 ± 0.039

GCACGCAACT
switch fluorescence ratio: 1.32 ± 0.013

GCACGCGGGG
switch fluorescence ratio: 1.009 ± 0.0015

GCACGCTAGG
switch fluorescence ratio: 1.07 ± 0.041

GCACGTTTTT
switch fluorescence ratio: 1 ± 0.03

GCAGAAGGTA
switch fluorescence ratio: 1.01 ± 0.029

GCAGAGGGC
switch fluorescence ratio: 1 ± 0.012

GCAGAGGGGA
switch fluorescence ratio: 0.981 ± 0.039

GCAGAGTCGT
switch fluorescence ratio: 0.999 ± 0.037

GCAGCAGGGT
switch fluorescence ratio: 1.101 ± 0.0034

GCAGCCGAGT
switch fluorescence ratio: 1.013 ± 0.0098

GCAGGAATTC
switch fluorescence ratio: 1.05 ± 0.042

GCAGGACGGG
switch fluorescence ratio: 1.4 ± 0.64

GCAGGAGGGG
switch fluorescence ratio: 0.965 ± 0.074

GCAGGGATAC
switch fluorescence ratio: 3.4 ± 0.048

GCAGGGATGA
switch fluorescence ratio: 0.994 ± 0.0052

GCAGGGGCTG
switch fluorescence ratio: 1.02 ± 0.016

GCAGGGGGCG
switch fluorescence ratio: 1.04 ± 0.051

GCAGGGGGGC
switch fluorescence ratio: 1.03 ± 0.035

GCAGGGTAGC
switch fluorescence ratio: 1.04 ± 0.012

GCAGGGTGGG
switch fluorescence ratio: 1.02 ± 0.028

GCAGGTCAAT
switch fluorescence ratio: 1.03 ± 0.018

GCAGGTCGCG
switch fluorescence ratio: 1.01 ± 0.024

GCAGGTTGAC
switch fluorescence ratio: 1.034 ± 0.003

GCAGGTTGAG
switch fluorescence ratio: 1.01 ± 0.044

GCAGGTTGGC
switch fluorescence ratio: 0.992 ± 0.029

GCAGTACTTT
switch fluorescence ratio: 1.5 ± 0.12

GCAGTAGCAA
switch fluorescence ratio: 1.08 ± 0.03

GCAGTATAGC
switch fluorescence ratio: 0.99 ± 0.011

GCAGTATGGG
switch fluorescence ratio: 1 ± 0.028

GCAGTATTCC
switch fluorescence ratio: 1.66 ± 0.11

GCAGTCCCGT
switch fluorescence ratio: 1.03 ± 0.015

GCAGTTAGTT
switch fluorescence ratio: 1.01 ± 0.033

GCAGTTGGAA
switch fluorescence ratio: 1.058 ± 0.0089

GCATAAGGGT
switch fluorescence ratio: 1.01 ± 0.038

GCATATCCGG
switch fluorescence ratio: 1.02 ± 0.011

GCATATGATC
switch fluorescence ratio: 1.05 ± 0.021

GCATATTTTG
switch fluorescence ratio: 0.994 ± 0.029

GCATCAATGG
switch fluorescence ratio: 1.06 ± 0.014

GCATCATTCA
switch fluorescence ratio: 1.03 ± 0.017

GCATCATTTA
switch fluorescence ratio: 1.009 ± 0.0059

GCATCCTGGA
switch fluorescence ratio: 0.969 ± 0.058

GCATGAACAT
switch fluorescence ratio: 0.98 ± 0.026

GCATGAGAGG
switch fluorescence ratio: 0.987 ± 0.021

GCATGAGGGT
switch fluorescence ratio: 1.03 ± 0.072

GCATGCGGGA
switch fluorescence ratio: 1.02 ± 0.074

GCATGGAAGA
switch fluorescence ratio: 0.992 ± 0.015

GCATGGCTGG
switch fluorescence ratio: 1.017 ± 0.00012

GCATGGGCTG
switch fluorescence ratio: 1.04 ± 0.019

GCATGGGGCG
switch fluorescence ratio: 1.037 ± 0.0041

GCATGGGGTG
switch fluorescence ratio: 1.069 ± 0.0081

GCATGGGGTT
switch fluorescence ratio: 0.998 ± 0.031

GCATGTGTAT
switch fluorescence ratio: 1.01 ± 0.031

GCATTAAAGT
switch fluorescence ratio: 0.958 ± 0.033

GCATTAAGAA
switch fluorescence ratio: 1.01 ± 0.018

GCATTAAGGA
switch fluorescence ratio: 1.058 ± 0.008

GCATTACTTG
switch fluorescence ratio: 1.16 ± 0.027

GCATTAGGGA
switch fluorescence ratio: 0.989 ± 0.024

GCATTCCGAA
switch fluorescence ratio: 1.22 ± 0.028

GCATTGAGTG
switch fluorescence ratio: 0.978 ± 0.03

GCATTGGCGG
switch fluorescence ratio: 0.993 ± 0.044

GCATTGGGGG
switch fluorescence ratio: 0.995 ± 0.041

GCATTTGAAA
switch fluorescence ratio: 0.978 ± 0.011

GCATTTGCTG
switch fluorescence ratio: 0.9719 ± 0.0044

GCATTTGGCC
switch fluorescence ratio: 0.999 ± 0.012

GCATTTTCTG
switch fluorescence ratio: 1.02 ± 0.026

GCCAAAACCT
switch fluorescence ratio: 2 ± 0.76

GCCAAATTTT
switch fluorescence ratio: 0.955 ± 0.035

GCCAACCACT
switch fluorescence ratio: 1.03 ± 0.025

GCCAATACCA
switch fluorescence ratio: 1.22 ± 0.013

GCCAATAGTT
switch fluorescence ratio: 1.046 ± 0.0073

GCCAATGGTT
switch fluorescence ratio: 1.08 ± 0.16

GCCAATGTGG
switch fluorescence ratio: 1 ± 0.051

GCCACAGTCG
switch fluorescence ratio: 1.01 ± 0.022

GCCACATTTT
switch fluorescence ratio: 0.945 ± 0.01

GCCACCGTTT
switch fluorescence ratio: 1.06 ± 0.021

GCCAGCAGCT
switch fluorescence ratio: 0.967 ± 0.014

GCCAGCCGTT
switch fluorescence ratio: 1.014 ± 0.0038

GCCAGGGCTG
switch fluorescence ratio: 1 ± 0.024

GCCAGGGCTT
switch fluorescence ratio: 1.03 ± 0.036

GCCAGTATGT
switch fluorescence ratio: 1.08 ± 0.086

GCCATCACGC
switch fluorescence ratio: 0.9836 ± 0.006

GCCATCATGC
switch fluorescence ratio: 0.97 ± 0.0073

GCCATCGTCG
switch fluorescence ratio: 1.01 ± 0.044

GCCATGCGTC
switch fluorescence ratio: 1.01 ± 0.026

GCCATGGGCA
switch fluorescence ratio: 1.002 ± 0.0053

GCCATGTTTT
switch fluorescence ratio: 0.9646 ± 0.008

GCCATTAAGA
switch fluorescence ratio: 1.01 ± 0.011

GCCATTCATC
switch fluorescence ratio: 1.02 ± 0.017

GCCCAAGAGT
switch fluorescence ratio: 1.04 ± 0.02

GCCCCACCTG
switch fluorescence ratio: 1.05 ± 0.029

GCCCCAGGGG
switch fluorescence ratio: 4.81 ± 0.36

GCCCGAGCAG
switch fluorescence ratio: 1.22 ± 0.062

GCCCGCTTCG
switch fluorescence ratio: 1.03 ± 0.024

GCCCGGAGCG
switch fluorescence ratio: 1.68 ± 0.13

GCCCGTTTCG
switch fluorescence ratio: 0.9989 ± 0.0082

GCCCTCCTGC
switch fluorescence ratio: 1.16 ± 0.078

GCCCTCTCGA
switch fluorescence ratio: 1.018 ± 0.0079

GCCCTGGGGA
switch fluorescence ratio: 2.74 ± 2.4

GCCGAAAGGA
switch fluorescence ratio: 1.04 ± 0.039

GCCGAAATGT
switch fluorescence ratio: 1.06 ± 0.097

GCCGCAGACA
switch fluorescence ratio: 1.39 ± 0.1

GCCGCAGGGG
switch fluorescence ratio: 2.61 ± 1.3

GCCGCATTTG
switch fluorescence ratio: 1.147 ± 0.011

GCCGCCTTTT
switch fluorescence ratio: 1.023 ± 0.0016

GCCGCGGGAG
switch fluorescence ratio: 1.096 ± 0.0063

GCCGCTTGCA
switch fluorescence ratio: 0.9973 ± 0.0053

GCCGGAAAAC
switch fluorescence ratio: 2.35 ± 0.2

GCCGGACTTT
switch fluorescence ratio: 1.01 ± 0.012

GCCGGAGGGG
switch fluorescence ratio: 1.26 ± 0.39

GCCGGCGCAC
switch fluorescence ratio: 1.026 ± 0.0057

GCCGGCGTCG
switch fluorescence ratio: 1.03 ± 0.035

GCCGGCTTCT
switch fluorescence ratio: 1.02 ± 0.016

GCCGGGATAG
switch fluorescence ratio: 1.23 ± 0.35

GCCGGGGTCG
switch fluorescence ratio: 1.02 ± 0.037

GCCGGGGTGC
switch fluorescence ratio: 1.06 ± 0.028

GCCGGGGTTG
switch fluorescence ratio: 1 ± 0.021

GCCGGGTATG
switch fluorescence ratio: 1.02 ± 0.022

GCCGTACCTG
switch fluorescence ratio: 1.041 ± 0.00042

GCCGTACTCT
switch fluorescence ratio: 1.1 ± 0.1

GCCGTAGACC
switch fluorescence ratio: 0.9994 ± 0.0092

GCCGTAGGGC
switch fluorescence ratio: 0.985 ± 0.011

GCCGTTCTTA
switch fluorescence ratio: 1.05 ± 0.037

GCCTAATATG
switch fluorescence ratio: 0.9793 ± 0.0083

GCCTACAGGT
switch fluorescence ratio: 1.03 ± 0.019

GCCTATAACT
switch fluorescence ratio: 1.016 ± 0.0077

GCCTATATTT
switch fluorescence ratio: 0.994 ± 0.017

GCCTCCTTTT
switch fluorescence ratio: 1.05 ± 0.019

GCCTCGTTGG
switch fluorescence ratio: 0.98 ± 0.012

GCCTGATGCG
switch fluorescence ratio: 0.997 ± 0.055

GCCTGCTGGA
switch fluorescence ratio: 1.002 ± 0.0023

GCCTGGAAAT
switch fluorescence ratio: 1 ± 0.021

GCCTGGAGTA
switch fluorescence ratio: 1.03 ± 0.065

GCCTGGGACC
switch fluorescence ratio: 0.996 ± 0.022

GCCTGGGGGG
switch fluorescence ratio: 1.02 ± 0.042

GCCTGGTCAG
switch fluorescence ratio: 0.979 ± 0.013

GCCTGTAAGT
switch fluorescence ratio: 0.989 ± 0.032

GCCTGTACTT
switch fluorescence ratio: 0.9883 ± 0.0046

GCCTGTTTGG
switch fluorescence ratio: 1.014 ± 0.01

GCCTTACAGT
switch fluorescence ratio: 0.985 ± 0.015

GCCTTACCTG
switch fluorescence ratio: 1.05 ± 0.012

GCCTTACGTC
switch fluorescence ratio: 1.05 ± 0.052

GCCTTGAGGA
switch fluorescence ratio: 0.997 ± 0.018

GCCTTGATGT
switch fluorescence ratio: 1.01 ± 0.032

GCGAAAAAGC
switch fluorescence ratio: 0.978 ± 0.046

GCGAAAACGC
switch fluorescence ratio: 1.04 ± 0.039

GCGAAAGTTT
switch fluorescence ratio: 1.01 ± 0.013
